Measured values published in publication PMC517709.

What follows are substances tested on a1;alpha2 (Saccharomyces cerevisiae;Saccharomyces cerevisiae) (assay: EMSA). Conditions: 1.4 uM a1 constant, 5-fold dilutions of alpha2 from 82 nM, protein dilution buffer 50 mM Tris pH 7.6, 1 mM EDTA, 500 mM NaCl, 10 mM 2-mercaptoethanol ….
In the case of CDC25 ORF site, the binding signal (fold decrease in affinity vs HO(10)) was 5.
Work on PRM8 ORF site yielded a binding signal (fold decrease in affinity vs HO(10)) of 5.
PRM9 ORF site showed a binding signal (fold decrease in affinity vs HO(10)) of 10.
Substance URB1 ORF site has a binding signal (fold decrease in affinity vs HO(10)) of 25.
Substance YKL162C ORF site has a binding signal (fold decrease in affinity vs HO(10)) of 10.
